These results are taken from paper PMC7414962, “Screening and Evaluation of New Hydroxymethylfurfural Oxidases for Furandicarboxylic Acid Production” (Applied and Environmental Microbiology, 2020).

The target of one data set is T1, PseniHMFO^His (Pseudomonas nitroreducens, UniProt A0A6G6IPZ6).
T1 construct: gene G5B91_01695
T1 sequence (A0A6G6IPZ6 1-531): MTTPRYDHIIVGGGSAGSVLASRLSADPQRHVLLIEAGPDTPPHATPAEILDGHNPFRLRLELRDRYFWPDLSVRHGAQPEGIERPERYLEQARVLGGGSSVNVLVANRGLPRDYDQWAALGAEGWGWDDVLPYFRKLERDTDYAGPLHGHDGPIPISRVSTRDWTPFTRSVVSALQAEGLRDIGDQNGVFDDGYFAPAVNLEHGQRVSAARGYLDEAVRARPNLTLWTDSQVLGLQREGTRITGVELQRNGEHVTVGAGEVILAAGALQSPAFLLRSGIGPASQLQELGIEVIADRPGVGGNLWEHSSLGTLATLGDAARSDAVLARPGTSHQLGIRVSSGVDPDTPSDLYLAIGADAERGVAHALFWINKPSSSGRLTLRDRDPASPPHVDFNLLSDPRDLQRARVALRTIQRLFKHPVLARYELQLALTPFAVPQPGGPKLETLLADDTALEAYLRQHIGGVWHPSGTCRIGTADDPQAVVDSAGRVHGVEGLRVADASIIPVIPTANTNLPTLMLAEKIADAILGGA
Kind of data set: UV-visible flavin spectrum; FAD release on heat denaturation. Particulars: 50 mM Tris-HCl, pH 7.0, 25°C; co-purified prosthetic group. Format: binding.

The target of another data set is T2, MetspHMFO (Methylovorus sp. MP688, UniProt E4QP00).
T2 construct: gene MPQ_0130
T2 sequence (E4QP00 1-531): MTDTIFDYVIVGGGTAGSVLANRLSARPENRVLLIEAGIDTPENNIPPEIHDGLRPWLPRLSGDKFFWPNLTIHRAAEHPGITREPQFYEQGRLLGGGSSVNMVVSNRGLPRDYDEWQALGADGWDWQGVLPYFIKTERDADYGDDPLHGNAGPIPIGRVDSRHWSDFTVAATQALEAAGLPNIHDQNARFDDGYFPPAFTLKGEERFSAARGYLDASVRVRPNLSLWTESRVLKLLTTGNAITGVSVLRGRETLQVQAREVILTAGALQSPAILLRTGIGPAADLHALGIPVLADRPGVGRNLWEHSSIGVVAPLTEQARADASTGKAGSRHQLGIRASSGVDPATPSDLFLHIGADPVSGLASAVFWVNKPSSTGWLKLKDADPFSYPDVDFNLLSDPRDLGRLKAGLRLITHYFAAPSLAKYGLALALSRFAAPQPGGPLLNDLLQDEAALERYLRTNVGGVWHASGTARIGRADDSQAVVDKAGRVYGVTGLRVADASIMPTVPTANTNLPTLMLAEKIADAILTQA
The description is as above. Format: binding. As to conditions: 50 mM Tris-HCl, pH 7.0, 25°C; co-purified prosthetic group.

Another data set addresses T3, MetspHMFO^His (Methylovorus sp. MP688, UniProt E4QP00).
T3 construct: gene MPQ_0130
T3 sequence (E4QP00 1-531): T2 sequence (E4QP00 1-531)
The description is as above. Format: binding. As to conditions: 50 mM Tris-HCl, pH 7.0, 25°C; co-purified prosthetic group.

The target of a further data set is T4, PsespHMFO (Pseudomonas sp. 11/12A, UniProt Z9N8I9PR93).
T4 sequence (Z9N8I9PR93 1-530): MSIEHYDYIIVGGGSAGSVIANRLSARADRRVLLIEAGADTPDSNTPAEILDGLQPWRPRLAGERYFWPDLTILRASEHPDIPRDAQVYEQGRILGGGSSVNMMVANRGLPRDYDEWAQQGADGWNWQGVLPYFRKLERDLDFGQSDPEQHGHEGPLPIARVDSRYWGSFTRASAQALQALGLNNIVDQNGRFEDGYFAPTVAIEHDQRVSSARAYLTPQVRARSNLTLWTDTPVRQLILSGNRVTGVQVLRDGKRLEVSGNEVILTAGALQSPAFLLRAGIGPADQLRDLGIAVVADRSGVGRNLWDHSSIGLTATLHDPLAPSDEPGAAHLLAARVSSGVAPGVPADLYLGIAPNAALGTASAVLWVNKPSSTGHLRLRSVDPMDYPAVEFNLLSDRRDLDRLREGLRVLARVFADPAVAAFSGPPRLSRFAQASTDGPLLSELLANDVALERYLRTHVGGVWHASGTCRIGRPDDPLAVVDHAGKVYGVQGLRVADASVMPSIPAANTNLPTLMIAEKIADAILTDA
The data set is described as above. Format: binding. Particulars: 50 mM Tris-HCl, pH 7.0, 25°C; co-purified prosthetic group.

Substrate in data set [1]: COc1cc(CO)ccc1O
In words: steady-state, direct spectrophotometry of vanillin. Format: biochemical, Pseudomonas nitroreducens. As to conditions: 50 mM Tris-HCl, pH 10, 25°C, O2. From the text:
steady-state, direct spectrophotometry of vanillin on PseniHMFO^His

Substrate in data set [2]: O=Cc1ccc(C=O)o1
In words: HRP/AmplexRed-coupled H2O2 assay. Format: biochemical, Pseudomonas nitroreducens. As to conditions: 50 mM Tris-HCl, pH 7.0, 25°C, O2. From the text:
(§1) HRP/AmplexRed-coupled H2O2 assay on PseniHMFO^His

Substrate in data set [3]: O=Cc1ccc(CO)o1
Kind of data set: HRP/AmplexRed-coupled H2O2 assay. Particulars: 50 mM Tris-HCl, pH 7.0, 25°C, O2. Format: biochemical, Pseudomonas nitroreducens.
Source text: as §1

Substrate in the data set “purified protein”: O=Cc1ccc(CO)o1
In words: purified protein. As to conditions: 50 mM Tris-HCl, pH 7.0, 25°C, O2.

Substrate in data set [4]: O=Cc1ccc(C=O)o1
In words: HRP/AmplexRed-coupled H2O2 assay. Format: biochemical, Methylovorus sp. MP688. As to conditions: 50 mM Tris-HCl, pH 7.0, 25°C, O2. An excerpt: HRP/AmplexRed-coupled H2O2 assay on MetspHMFO

Substrate in data set [5]: COc1cc(CO)ccc1O
In words: steady-state, direct spectrophotometry of vanillin. Format: biochemical, Methylovorus sp. MP688. Particulars: 50 mM Tris-HCl, pH 7.0, 25°C, O2. From the text:
steady-state, direct spectrophotometry of vanillin on MetspHMFO

Substrate in data set [6]: O=Cc1ccc(C=O)o1
In words: HRP/AmplexRed-coupled H2O2 assay. Format: biochemical, Methylovorus sp. MP688. As to conditions: 50 mM Tris-HCl, pH 7.0, 25°C, O2. From the text:
HRP/AmplexRed-coupled H2O2 assay on MetspHMFO^His
The source holds these as a separate data set.

Substrate in data set [7]: COc1cc(CO)ccc1O
In words: steady-state, direct spectrophotometry of vanillin. Particulars: 50 mM Tris-HCl, pH 7.0, 25°C, O2. Format: biochemical, Methylovorus sp. MP688. From the text:
steady-state, direct spectrophotometry of vanillin on MetspHMFO^His
This is another data set of the same source.

Consider `Cc1cc2nc3c(=O)[nH]c(=O)nc-3n(C[C@H](O)[C@H](O)[C@H](O)COP(=O)(O)OP(=O)(O)OC[C@H]3O[C@@H](n4cnc5c(N)ncnc54)[C@H](O)[C@@H]3O)c2cc1C` [FAD], for which the “UV-visible flavin spectrum; FAD release on heat denaturation” value on PseniHMFO^His, on MetspHMFO, on MetspHMFO^His and at PsespHMFO was “The enzymes showed UV-visible spectra characteristic of FAD-containing proteins” each time.

B1: PseniHMFO^His (Pseudomonas nitroreducens) (protein)
chain: T1 sequence (A0A6G6IPZ6 1-531)
For the molecule B1, the Km in [1] is reported as 0.8 ± 0.2 mM; in [2] it was 4.8 ± 1.9 mM; in data set [3] it was 5.1 ± 1.1 mM. Further, the kcat was 0.0167 ± 0.0017 s⁻¹ in [2] and 0.238 ± 0.015 s⁻¹ in data set [3].

B2: MetspHMFO (Methylovorus sp. MP688) (protein)
chain: T2 sequence (E4QP00 1-531)
For B2, the Km is given as 9.1 ± 0.7 mM in “purified protein”, 6.8 ± 0.6 mM in data set [4] and 0.5 ± 0.1 mM in data set [5]. Further, the kcat in “purified protein” worked out at 1.38 ± 0.0267 s⁻¹; in [4], 0.102 ± 0.0033 s⁻¹; in data set [5] it was 19.5 ± 1.33 s⁻¹.

B3: MetspHMFO^His (Methylovorus sp. MP688) (protein)
chain: T2 sequence (E4QP00 1-531)
On to B3, for which the Km stood at 6.8 ± 0.8 mM in the data set “purified protein”, 4.8 ± 1.9 mM in data set [6] and 0.6 ± 0.03 mM in [7]. In addition, the kcat in the data set “purified protein” amounted to 1.61 ± 0.0633 s⁻¹; in data set [6], 0.0417 ± 0.005 s⁻¹; in data set [7], 19.83 ± 0.833 s⁻¹.

One may read the Km as the concentration of substrate that gives half-maximal velocity. By kcat is commonly meant the number of substrate molecules converted per active site and unit of time at saturation.
